Assay results: US20260069689A1

Biological target: T1, human CD20 on Jurkat cells (human) (UniProt P11836)
T1 sequence: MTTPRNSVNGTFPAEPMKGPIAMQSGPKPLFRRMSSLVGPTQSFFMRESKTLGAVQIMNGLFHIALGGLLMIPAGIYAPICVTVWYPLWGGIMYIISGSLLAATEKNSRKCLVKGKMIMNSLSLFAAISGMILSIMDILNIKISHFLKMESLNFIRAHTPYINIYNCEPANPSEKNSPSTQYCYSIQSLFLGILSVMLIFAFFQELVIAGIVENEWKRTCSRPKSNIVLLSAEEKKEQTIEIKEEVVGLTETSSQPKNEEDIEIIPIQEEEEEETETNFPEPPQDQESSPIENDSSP
Experiment: cell-based or functional assay

casirivimab + imdevimab
Max ADCP (%), MDM donor #1, Jurkat/hCD20 cells: 15.5%
Max ADCP (%), MDM donor #2, Jurkat/hCD20 cells: 15.1%
Max cytotoxicity (%), ADCC, NK donor #1, Jurkat/hCD20 cells: 0.8%
Max cytotoxicity (%), ADCC, NK donor #2, Jurkat/hCD20 cells: 4.8%
Max cytotoxicity (%), ADCC, NK donor #3, Jurkat/hCD20 cells: 0%
